# Measurements taken from PMC1266349, “Nonnatural amino acid incorporation into the methionine 214 position of the metzincin Pseudomonas aeruginosa alkaline protease” (BMC Biochemistry, 2005).
# Test system: N=C(N)NCCC[C@H](NC(=O)OCc1ccccc1)C(=O)N[C@@H](CCCNC(=N)N)C(=O)Nc1ccc([N+](=O)[O-])cc1
# Test: purified protein
# Conditions: 20 mM HEPES, 100 μg enzyme per assay; revised conditions, unlabelled recombinant protein
substance,measurement,value
"AprA (alkaline protease from Pseudomonas aeruginosa), mature full-length (Pseudomonas aeruginosa PAO1)",Km,15.4 ± 0.9 µM
same,kcat,0.0095 ± 0.00033 s⁻¹
